Data: patent publication US6548643
Values belong to the binder of their own block, whether it stands above or below them.

Assays:
Test in all cases: cell-based or functional assay
[1] = target: H-2D^b class I molecule on RMA cells (mouse) (UniProt P01899)
[2] = target: T1, H-2D^d class I molecule on P815 cells (mouse) (UniProt P01900)
T1 sequence (MHC heavy, looked up): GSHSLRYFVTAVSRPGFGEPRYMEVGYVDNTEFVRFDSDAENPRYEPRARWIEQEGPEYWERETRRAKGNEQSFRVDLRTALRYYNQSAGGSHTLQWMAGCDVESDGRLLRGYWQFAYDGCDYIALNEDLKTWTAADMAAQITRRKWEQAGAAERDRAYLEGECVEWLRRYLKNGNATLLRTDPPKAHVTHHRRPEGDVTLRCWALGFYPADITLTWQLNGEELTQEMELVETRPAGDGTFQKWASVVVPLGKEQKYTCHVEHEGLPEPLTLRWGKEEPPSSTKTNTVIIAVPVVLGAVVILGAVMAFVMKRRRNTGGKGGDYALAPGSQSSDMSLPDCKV

[3] = target: H-2K^b class I molecule on RMA cells (mouse) (UniProt P01901)
[4] = target: H-2K^d class I molecule on P815 cells (mouse) (UniProt P01902)
[5] = target: H-2L^d class I molecule on P815 cells (mouse) (UniProt P01897)

UniProt P01901, sequence (P01901 22-369): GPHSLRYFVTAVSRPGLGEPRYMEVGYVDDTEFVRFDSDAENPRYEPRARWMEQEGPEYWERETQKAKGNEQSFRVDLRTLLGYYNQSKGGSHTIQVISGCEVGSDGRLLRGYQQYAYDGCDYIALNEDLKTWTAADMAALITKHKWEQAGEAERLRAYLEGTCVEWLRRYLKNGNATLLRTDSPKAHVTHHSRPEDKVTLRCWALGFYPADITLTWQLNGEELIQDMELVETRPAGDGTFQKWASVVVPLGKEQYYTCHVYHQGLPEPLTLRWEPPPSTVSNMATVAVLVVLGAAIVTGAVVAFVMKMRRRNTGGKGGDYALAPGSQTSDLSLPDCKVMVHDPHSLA
UniProt P01902, sequence (P01902 22-368): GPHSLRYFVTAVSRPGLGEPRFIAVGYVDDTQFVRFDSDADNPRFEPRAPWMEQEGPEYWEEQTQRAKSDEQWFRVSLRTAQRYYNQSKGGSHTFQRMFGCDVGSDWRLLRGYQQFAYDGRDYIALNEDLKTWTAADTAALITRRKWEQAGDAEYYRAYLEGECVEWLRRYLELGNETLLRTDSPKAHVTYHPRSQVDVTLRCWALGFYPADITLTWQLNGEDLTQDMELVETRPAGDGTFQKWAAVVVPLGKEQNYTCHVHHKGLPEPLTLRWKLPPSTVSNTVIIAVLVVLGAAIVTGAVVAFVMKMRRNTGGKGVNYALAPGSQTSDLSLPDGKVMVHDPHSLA

B1: … (peptide)
peptide: SAPDNRPAL
- % lysis of peptide-pulsed RMA target cells by mannan-HMFG CTL, E:T 50:1 [1]: 50%

B3: … (peptide)
peptide: AVSMTSSVL
- % lysis of peptide-pulsed RMA target cells by mannan-HMFG CTL, E:T 50:1 [1]: 18%
- % lysis of peptide-pulsed RMA target cells by mannan-HMFG CTL, E:T 100:1 [1]: 40%
- % lysis of peptide-pulsed RMA target cells by mannan-HMFG CTL, E:T 50:1 [3]: 18%
- % lysis of peptide-pulsed RMA target cells by mannan-HMFG CTL, E:T 100:1 [3]: 40%
- % lysis of peptide-pulsed P815 target cells by mannan-HMFG CTL, E:T 50:1 [4]: 77%

B4: … (peptide)
peptide: KNYGQLDIF
- % lysis of peptide-pulsed P815 target cells by CTL of mannan-HMFG immunised BALB/c mice (51Cr release) [5]: 0%

B5: … (peptide)
peptide: YYQELQRDI
- % lysis of peptide-pulsed P815 target cells by mannan-HMFG CTL, E:T 50:1 [4]: 50%

B10: … (peptide)
peptide: APDTRPAPG
- % lysis of peptide-pulsed P815 target cells by mannan-HMFG CTL, E:T 50:1 [5]: 50%

The next lines start with the values.

- % lysis of peptide-pulsed P815 target cells by mannan-HMFG CTL, E:T 50:1 [2]: 62%
- % lysis of peptide-pulsed RMA target cells by mannan-HMFG CTL [3]: 80%
B2: … (peptide)
peptide: SAPDTRPAP

- % lysis of peptide-pulsed RMA target cells by mannan-HMFG CTL [1]: 70%
B6: … (peptide)
peptide: APGSTAPPA

- % lysis of peptide-pulsed P815 target cells by mannan-HMFG CTL, E:T 50:1 [2]: 0%
B7: … (peptide)
peptide: SVPSSTEKN

- % lysis of peptide-pulsed P815 target cells by CTL of mannan-HMFG immunised BALB/c mice (51Cr release) [4]: 0%
B8: … (peptide)
peptide: NYGQLDIFP

- % lysis of peptide-pulsed RMA target cells by mannan-HMFG CTL, E:T 50:1 [1]: 20%
- % lysis of peptide-pulsed RMA target cells by mannan-HMFG CTL, E:T 100:1 [1]: 42%
- % lysis of peptide-pulsed RMA target cells by mannan-HMFG CTL, E:T 50:1 [3]: 20%
- % lysis of peptide-pulsed RMA target cells by mannan-HMFG CTL, E:T 100:1 [3]: 42%
B9: … (peptide)
peptide: CRRKNYGQL

- % lysis of peptide-pulsed P815 target cells by CTL of mannan-HMFG immunised BALB/c mice (51Cr release) [2]: 0%
B11: … (peptide)
peptide: YGQLDIFPA

- % lysis of peptide-pulsed P815 target cells by mannan-HMFG CTL, E:T 50:1 [5]: 78%
B12: … (peptide)
peptide: VPSSTEKNA
